This passage reports binding result and A405 results from US20020146711A1 (published 2002).

B1: MMAC1.388-403: biotin-ENEPFDEDQHTQITKV-COOH (peptide)
peptide: Biotin-ENEPFDEDQHTQITKV-OH
SMILES: CC[C@H](C)[C@H](NC(=O)[C@H](CCC(N)=O)NC(=O)[C@@H](NC(=O)[C@H](Cc1c[nH]cn1)NC(=O)[C@H](CCC(N)=O)NC(=O)[C@H](CC(=O)O)NC(=O)[C@H](CCC(=O)O)NC(=O)[C@H](CC(=O)O)NC(=O)[C@H](Cc1ccccc1)NC(=O)[C@@H]1CCCN1C(=O)[C@H](CCC(=O)O)NC(=O)[C@H](CC(N)=O)NC(=O)[C@H](CCC(=O)O)NC(=O)CCCC[C@@H]1SC[C@@H]2NC(=O)N[C@@H]21)[C@@H](C)O)C(=O)N[C@H](C(=O)N[C@@H](CCCCN)C(=O)N[C@H](C(=O)O)C(C)C)[C@@H](C)O
notes: also called MMAC1 C-terminal PDZ peptide
B2: GST fusion of MMSC2 PDZ domain 3 (P13) (other)
chain: FDVELTKNVQGLGITIAGYIGDKKLEPSGIFVKSITKSSAVEHDGRIQIGDQIIAVDGTNLQGFTNQQAVEVLRHTGQTVLLTLMR
notes: GST placed N-terminal as in pGEX vectors; also called PDZ domain number 3; not shown: glutathione S-transferase (GST) encoded by pGEX vectors (Pharmacia)
B3: GST fusion of MMSC2 PDZ domain 7 (P9) (other)
chain: RRVELWREPSKSLGISIVGGRGMGSRLSNGEVMRGIFIKHVLEDSPAGKNGTLKPGDRIVEVDGMDLRDASHEQAVEAIRKAGNPVVFMVQS
notes: GST placed N-terminal as in pGEX vectors; also called PDZ domain number 7; not shown: glutathione S-transferase (GST) encoded by pGEX vectors (Pharmacia)
B4: GST fusion of MMSC2 PDZ domain 12 (P3) (other)
chain: RTVEMKKGPTDSLGISIAGGVGSPLGDVPIFIAMMHPTGVAAQTQKLRVGDRIVTICGTSTEGMTHTQAVNLLKNASGSIEMQVVA
notes: GST placed N-terminal as in pGEX vectors; also called PDZ domain number 12; not shown: glutathione S-transferase (GST) encoded by pGEX vectors (Pharmacia)
B5: GST fusion of MMSC2 PDZ domain 10 (P1) (other)
chain: TTIEISKGRTGLGLSIVGGSDTLLGAIIIHEVYEEGAACKDGRLWAGDQILEVNGIDLRKATHDEAINVLRQTPQRVRLTLYR
notes: GST placed N-terminal as in pGEX vectors; also called PDZ domain number 10; not shown: glutathione S-transferase (GST) encoded by pGEX vectors (Pharmacia)
B6: GST fusion of MMSC2 PDZ domain 9 (P7) (other)
chain: AVDLSSFKNVQHLELPKDQGGLGIAISEEDTLSGVIIKSLTEHGVAATDGRLKVGDQILAVDDEIVVGYPIEKFISLLKTAKMTVKLTIHA
notes: GST placed N-terminal as in pGEX vectors; also called PDZ domain number 9; not shown: glutathione S-transferase (GST) encoded by pGEX vectors (Pharmacia)
B7: GST fusion of MMSC2 PDZ domain 6 (P11) (other)
chain: RTINIAKGNSSLGMTVSANKDGLGMIVRSIIHGGAISRDGRIAIGDCILSINEESTISVTNAQARAMLRRHSLIGPDIKITYVP
notes: GST placed N-terminal as in pGEX vectors; also called PDZ domain number 6; not shown: glutathione S-transferase (GST) encoded by pGEX vectors (Pharmacia)
B8: GST fusion of MMSC2 PDZ domain 8 (P8) (other)
chain: HMIELEKGHSGLGLSLAGNKDRSRMSVFIVGIDPNGAAGKDGRLQIADELLEINGQILYGRSHQNASSIIKCAPSKVKIIFIR
notes: GST placed N-terminal as in pGEX vectors; also called PDZ domain number 8; not shown: glutathione S-transferase (GST) encoded by pGEX vectors (Pharmacia)
B9: GST fusion of MMSC2 PDZ domain 2 (P14) (other)
chain: ETIELVNDGSGLGFGIIGGKATGVIVKTILPGGVADQHGRLCSGDHILKIGDTDLAGMSSEQVAQVLRQCGNRVKLMIAR
notes: GST placed N-terminal as in pGEX vectors; also called PDZ domain number 2; not shown: glutathione S-transferase (GST) encoded by pGEX vectors (Pharmacia)
B10: GST fusion of MMSC2 PDZ domain 4 (P10) (other)
chain: HVSKFSENSGLGISLEATVGHHFIRSVLPEGPVGHSGKLFSGDELLEVNGITLLGENHQDVVNILKELPIEVTMVCCR
notes: GST placed N-terminal as in pGEX vectors; also called PDZ domain number 4; not shown: glutathione S-transferase (GST) encoded by pGEX vectors (Pharmacia)
B11: GST fusion of MMSC2 PDZ domain 13 (P4) (other)
chain: KSITLERGPDGLGFSIVGGYGSPHGDLPIYVKTVFAKGAASEDGRLKRGDQIIAVNGQSLEGVTHEEAVAILKRTKGTVTLMVLS
notes: GST placed N-terminal as in pGEX vectors; also called PDZ domain number 13; not shown: glutathione S-transferase (GST) encoded by pGEX vectors (Pharmacia)
B12: GST fusion of MMSC2 PDZ domain 11 (P2) (other)
chain: LTIELQKKPGKGLGLSIVGKRNDTGVFVSDIVKGGIADADGRLMQGDQILMVNGEDVRNATQEAVAALLKCSLGTVTLEVGR
notes: GST placed N-terminal as in pGEX vectors; also called PDZ domain number 11; not shown: glutathione S-transferase (GST) encoded by pGEX vectors (Pharmacia)
B13: GST fusion of MMSC2 PDZ domain 1 (P15) (other)
chain: EVFELLKPPSGGLGFSVVGLRSENRGELGIFVQEIQEGSVAHRDGRLKETDQILAINGQALDQTITHQQAISILQKAKDTVQLVIAR
notes: GST placed N-terminal as in pGEX vectors; Adsorbed to ELISA wells; also called PDZ domain number 1; not shown: glutathione S-transferase (GST) encoded by pGEX vectors (Pharmacia)
B14: GST fusion of MMSC2 PDZ domain 5 (P12) (other)
chain: QHIELEKGSKGLGFSILDYQDPIDPASTVIIIRSLVPGGIAEKDGRLLPGDRLMFVNDVNLENSSLEEAVEALKGAPSGTVRIGVAK
notes: GST placed N-terminal as in pGEX vectors; also called PDZ domain number 5; not shown: glutathione S-transferase (GST) encoded by pGEX vectors (Pharmacia)

*: point of attachment. Biotin = O=C1N[C@H]2[C@H](CS[C@H]2CCCCC(=O)*)N1

The target of the first assay is B3. Briefly: summary of the PDZ binding assay.
With B1, the binding result is listed as “binds”.

A further assay addresses B11. The assay can be described thus: summary of the PDZ binding assay.
Turning to B1, the binding result was “binds”.

For a further assay, the target named is B5. Briefly: summary of the PDZ binding assay.
Turning to B1, the binding result is recorded as “binds”.

A further assay concerns the target B1. Briefly: ELISA, GST-PDZ domain on plate, biotin-peptide/streptavidin-alkaline phosphatase complex in solution. The source says: (§1) cDNAs encoding each of the MMSC2 PDZ domains (amino acid residues identified in Table 1), and any desired control proteins, were generated by PCR and subcloned as glutathione S-transferase (GST) fusions in pGEX vectors (Pharmacia). After sequencing to confirm expression construct integrity, the resulting clones were expressed in E. coli and the desired fusion proteins isolated with glutathione-agarose and recovered with glutathione elution. These fusion proteins or control proteins were then adsorbed to different wells of a 96-well ELISA plate and remaining sites blocked with BSA. Synthetic commercially synthesized peptides encoding the desired PDZ-binding domain (i.e., the 16 C-terminal amino acids of MMAC1, or the C-terminal peptide sequences of interacting proteins identified by the approach of Example 2, or the C-terminal peptide sequences identified by the approach of Example 3), or a control peptide, and biotinylated at the amino-terminus, were pre-bound to streptavidin-alkaline phosphatase in a 4:1 molar ratio. The biotinylated peptide streptavidin-alkaline phosphatase complexes were then blocked with free biotin. These pre-bound peptide streptavidin-alkaline phosphatase complexes were then incubated with the immobilized PDZ domains in wash buffer containing PBS, BSA and triton-X100. Unbound material was removed with repeated washes. Bound peptide/streptavidin-alkaline phosphatase complex was then quantitated by a colorimetric phosphatase assay read on a 96-well plate reader. The following peptides were used in the initial study:
(§2) The relative affinity of each of the 13 PDZ domains encoded by MMSC2 for an MMAC1 C-terminal PDZ peptide as measured by an ELISA assay is set forth in Table 2.
In turn, B2 showed an A405 of 0.006 A405.

As to B3, the A405 stood at 0.667 A405.

On to B4, for which the A405 came to 0.003 A405.

B5 returned an A405 of 0.174 A405.

Consider B6, for which the A405 is 0.017 A405.

Molecule B7 had an A405 of 0.016 A405.

As for B8, the A405 is 0.006 A405.

Regarding B9, the A405 stood at 0.001 A405.

For the molecule B10, the A405 came to 0.024 A405.

On to B11, for which the A405 turned out to be 0.456 A405.

B12 displayed an A405 of 0.012 A405.

In turn, B13 yielded an A405 of 0.011 A405.

For the molecule B14, the A405 came out at 0 A405.

The next assay deals with T1, SH3 binding peptide: biotin-SGSGILAPPVPPRNTR-COOH (SMILES …).
T1 peptide: Biotin-SGSGILAPPVPPRNTR-OH
The assay is described as above.
Source text: as §1, §2
As to B2, the A405 turned out to be 0.008 A405.

The molecule B3 had an A405 of 0.006 A405.

The molecule B4 displayed an A405 of 0.011 A405.

The molecule B5 gave an A405 of 0.002 A405.

The molecule B6 yielded an A405 of 0.009 A405.

In turn, B7 yielded an A405 of 0.017 A405.

B8 returned an A405 of 0.008 A405.

In turn, B9 registered an A405 of 0.006 A405.

The molecule B10 registered an A405 of 0.01 A405.

B11 returned an A405 of 0.006 A405.

For the molecule B12, the A405 came to 0.009 A405.

In turn, B13 had an A405 of 0.007 A405.

In turn, B14 had an A405 of 0.005 A405.
